# Assay results reported in the RNAGym collection of RNA variant scans (doi:10.1073/pnas.2313332121).
# B1: TPR t1 (parent)
# chain: GACCAAUCUGCCCUCAGAGCUCGAGAACAUCUUCGGAUGCAGAGGAGGCAGGCUUCGGUGGCGCGAUAGCGCCAACGUCCUCAACCUCCAAUGCAUCCCACCACAUGAUGAUGCCUGAAGAGCCUUGGUUUUUUG
# Variants of: B1
# Assay: polymerase ribozyme fitness, log enrichment relative to wild type (log ratio); higher = more active; in vitro selection for triplet polymerase activity
# In short: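 Input and output libraries were sequenced on Illumina after a single in vitro selection round, run in triplicate on PCR-built, transcribed mutant libraries of each subunit of a heterodimeric triplet polymerase ribozyme. Selection annealed libraries to a biotinylated primer, the partner subunit and triplets, incubated them frozen at −7 °C, then gel-excised extended constructs for streptavidin-bead capture and RT-PCR. Genotypes with ≥10 input reads and ≥1 read per output were kept. Fitness is the logarithm, taken in base 2, of genotype enrichment divided by wild-type enrichment, using inverse-variance-weighted replicate averages.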
row,Variant,polymerase ribozyme fitness (log ratio)
1,G58C G110C A121U,-4.05
2,G58C U78G A90C A118U G127C,-2.89
3,G58C U96G C104U,-0.405
4,G58C U129G,-0.485
5,G58C U133A,0.072
6,G58U A103C A121G,-4.29
7,G58U C73U,-0.0574
8,G58U C104U A105U G110A C124U U133G,-7.29
9,G58U G60A U87A A103U,-5.31
10,G58U G61A,-0.176
11,G58U G61C A90G,0.258
12,U59A A66C C124A,0.00699
13,U59A A74C C82A G93C,-1.19
14,U59A C70U U125A U133A,-1.97
15,U59A C82A G93C,-0.829
16,U59A C82G A119U,-0.921
17,U59A C88U A118U,0.167
18,U59A C89A,-1.85
19,U59A C89U C124A U125A,1.78
20,U59A C104U,0.251
21,U59A C114A,-1.7

row,Variant,polymerase ribozyme fitness (log ratio)
1,U59A C114A U130A,-2.17
2,U59A C123G G127A,0.53
3,U59A C124A,1.62
4,U59A G60A,0.122
5,U59A G63A,-1.13
6,U59A G63C C82A G127A,-2.72
7,U59A G77U G117U,-2.87
8,U59A G93U,-0.878
9,U59A G128C,-2.5
10,U59A U81A A119U,-0.551
11,U59C A84G,-1.4
12,U59C A91C G120C U133C G135U,-0.803
13,U59C A91G U133G,-2.51
14,U59C A108G,-2.19
15,U59C A119G,0.816
16,U59C C64U C82G C94U,-1.7
17,U59C C72U G117A,-1.45
18,U59C C82A C88G,-2.83
19,U59C C102U C114G,-5.47
20,U59C C124A,2.03
21,U59C G93A,-1.47

row,Variant,polymerase ribozyme fitness (log ratio)
1,U59C G93C G113U U133G,-3.53
2,U59C G120A G135U,-0.46
3,U59C G122A C123U G128C,-0.638
4,U59C G127U,-0.462
5,U59C G128U,-2.04
6,U59C U78C A83U C115A,-1.1
7,U59C U78G,-0.0388
8,U59C U92G C114G U125G,-4.63
9,U59C U96C,-0.447
10,U59C U106G U112G,-2.31
11,U59C U109C C114A,-6.67
12,U59C U129C,-1.12
13,U59G A90U,-0.957
14,U59G A111C,0.213
15,U59G C70U C101A,-2.5
16,U59G C73A C88A,-2.15
17,U59G C82U G93U U96C C123U,-0.453
18,U59G C85U C115A,-0.695
19,U59G C99U U106A,-1.43
20,U59G C104A A105U G110A,-5.5
21,U59G C124U,1.25

row,Variant,polymerase ribozyme fitness (log ratio)
1,U59G G60A C70G C115A A121C,-4.99
2,U59G G61A,-2.76
3,U59G G63A U87C C114U,-4.39
4,U59G G77U G117A,-1.91
5,U59G G127U,-0.904
6,U59G U130G,-0.605
7,G60A A66U,-1.29
8,G60A A74U U92A C104U U133A,-2.03
9,G60A A100U,-0.621
10,G60A A121C,1.29
11,G60A C70U C102A C115A,-3.29
12,G60A C79A A84U,-2.32
13,G60A C79U U96A C115U C123G U132A,-1.19
14,G60A C80A C85G C98U,-5.64
15,G60A C80A C88A,-3.61
16,G60A C80U,-1.64
17,G60A C82A A95G,0.0608
18,G60A C88G G113A,-2.28
19,G60A C88U G120A G122U,0.196
20,G60A C88U G127A,-1.7
